Consider 13 molecules from US20240116985A1, “STAPLED PEPTIDES AND METHODS THEREOF” (priority 2020, published 2024).

Starred links: 1 amine or outer side, 2 acyl side, 3 side chain; linkers in the order of their positions; H or OH if unused. Positions of bridges follow the written chain, without caps; N, C: chain ends. Non-standard residues stand in square brackets, D forms with d. Primed or numbered codes have the meaning given here. PyrS2″ = (S)-3-amino-1-((pent-4-en-1-yloxy)carbonyl)pyrrolidine-3-carboxylic acid (stapling residue), C=CCCCOC(=O)N1CC[C@@](N[*:1])(C(=O)[*:2])C1; B5(4) = 2,2-bis(4-pentenyl)glycine = 2-amino-2-(pent-4-en-1-yl)hept-6-enoic acid (stitching residue), C=CCCCC(CCCC=C)(N[*:1])C(=O)[*:2]; B5(5) = 2,2-bis(4-pentenyl)glycine, 2-amino-2-(pent-4-en-1-yl)hept-6-enoic acid (stitching residue), C=CCCCC(CCCC=C)(N[*:1])C(=O)[*:2]; TfeGA = (S)-2-amino-3-((carboxymethyl)(2,2,2-trifluoroethyl)amino)propanoic acid, O=C([C@H](CN(CC(=O)[*:3])CC(F)(F)F)N[*:1])[*:2]; Bta = N[C@@H](Cc1csc2ccccc12)C(=O)O; Lys(iPr) = CC(C)NCCCC[C@H](N)C(=O)O; αAllylPro = C=CC[C@@]1(C(=O)O)CCCN1; tBuAla = CC(C)(C)C[C@H](N)C(=O)O; 3Thi = N[C@@H](Cc1ccsc1)C(=O)O

Broadly, the IC50 is the midpoint of a concentration-inhibition curve. A low value points to greater potency.

For the experiment, the target named is full-length beta-Catenin (Uniprot ID P35222) (Homo sapiens (Human)) (UniProt P35222). Nature of the experiment: fluorescence polarization competition; full-length beta-catenin, competitor 5FAM-TCF4(10-53). On the technique in general: Polarisation of emitted light reports the rotation of a fluorescent probe.
full-length beta-Catenin (Uniprot ID P35222) (Homo sapiens (Human)), sequence (P35222 whole entry): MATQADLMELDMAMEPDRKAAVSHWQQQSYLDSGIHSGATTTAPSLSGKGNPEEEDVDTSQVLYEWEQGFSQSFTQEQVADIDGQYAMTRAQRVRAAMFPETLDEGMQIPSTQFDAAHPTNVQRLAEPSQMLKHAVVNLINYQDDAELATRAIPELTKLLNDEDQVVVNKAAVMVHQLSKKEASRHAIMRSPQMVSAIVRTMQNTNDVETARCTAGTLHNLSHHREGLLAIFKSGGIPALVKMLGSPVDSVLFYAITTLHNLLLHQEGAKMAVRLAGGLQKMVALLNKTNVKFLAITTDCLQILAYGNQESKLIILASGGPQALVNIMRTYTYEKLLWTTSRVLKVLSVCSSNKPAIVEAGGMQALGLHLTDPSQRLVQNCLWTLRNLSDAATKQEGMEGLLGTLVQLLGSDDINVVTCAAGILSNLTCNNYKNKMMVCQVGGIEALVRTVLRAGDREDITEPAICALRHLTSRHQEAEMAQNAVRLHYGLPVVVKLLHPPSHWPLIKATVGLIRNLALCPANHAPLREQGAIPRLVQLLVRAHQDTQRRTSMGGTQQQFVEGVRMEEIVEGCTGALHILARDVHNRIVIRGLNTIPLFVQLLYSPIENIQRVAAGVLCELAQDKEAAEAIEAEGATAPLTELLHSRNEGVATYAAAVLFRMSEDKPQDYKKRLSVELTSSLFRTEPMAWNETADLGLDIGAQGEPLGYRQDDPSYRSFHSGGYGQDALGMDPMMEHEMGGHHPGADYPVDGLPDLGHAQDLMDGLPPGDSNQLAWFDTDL
The molecule Ac-[αAllylPro]D[tBuAla][B5(5)]D[TfeGA][Lys(iPr)]AFT[PyrS2″][3Thi][Bta]V-NH2 (staple 1-4, 4-11) [I-1764] came in with an IC50 of 23 nM.
Ac-[αAllylPro]D[tBuAla][B5(4)]D[TfeGA][Lys(iPr)]AFT[PyrS2″][3Thi][Bta]L-NH2 (staple 1-4, 4-11; also: -CH=CH- in each staple reduced to -CH2-CH2-) [I-1766] showed an IC50 of 267 nM.
For the molecule Ac-[αAllylPro]D[tBuAla][B5(4)]D[TfeGA]AAFL[PyrS2″][3Thi][Bta]F-NH2 (staple 1-4, 4-11; also: -CH=CH- in each staple reduced to -CH2-CH2-) [I-1755], the IC50 came out at 570 nM.
Ac-[αAllylPro]D[tBuAla][B5(4)]D[TfeGA]AAFL[PyrS2″][3Thi][Bta]V-NH2 (staple 1-4, 4-11; also: -CH=CH- in each staple reduced to -CH2-CH2-) [I-1757]: the IC50 turned out to be 449 nM. This IC50 and that of the molecule before are within 1.5-fold of each other.
As for Ac-[αAllylPro]D[tBuAla][B5(4)]D[TfeGA][Lys(iPr)]AFL[PyrS2″][3Thi][Bta]L-NH2 (staple 1-4, 4-11; also: -CH=CH- in each staple reduced to -CH2-CH2-) [I-1765], the figure is 667 nM; as for Ac-[αAllylPro]D[tBuAla][B5(5)]D[TfeGA][Lys(iPr)]AFL[PyrS2″][3Thi][Bta]L-NH2 (staple 1-4, 4-11) [I-1759], 57 nM.
Ac-[αAllylPro]D[tBuAla][B5(4)]D[TfeGA]AAFL[PyrS2″][3Thi][Bta]L-NH2 (staple 1-4, 4-11; also: -CH=CH- in each staple reduced to -CH2-CH2-) [I-1753] returned an IC50 of 802 nM. Against the preceding molecule, the IC50 is about 14-fold higher.
As for Ac-[αAllylPro]D[tBuAla][B5(4)]D[TfeGA]AAFT[PyrS2″][3Thi][Bta]V-NH2 (staple 1-4, 4-11; also: -CH=CH- in each staple reduced to -CH2-CH2-) [I-1758], the IC50 turned out to be 235 nM.
Ac-[αAllylPro]D[tBuAla][B5(4)]D[TfeGA]AAFT[PyrS2″][3Thi][Bta]L-NH2 (staple 1-4, 4-11; also: -CH=CH- in each staple reduced to -CH2-CH2-) [I-1754] came in with an IC50 of 660 nM.
As to Ac-[αAllylPro]D[tBuAla][B5(4)]D[TfeGA]AAFT[PyrS2″][3Thi][Bta]F-NH2 (staple 1-4, 4-11; also: -CH=CH- in each staple reduced to -CH2-CH2-) [I-1756], the IC50 was found to be 329 nM.
As for Ac-[αAllylPro]D[tBuAla][B5(5)]D[TfeGA][Lys(iPr)]AFL[PyrS2″][3Thi][Bta]V-NH2 (staple 1-4, 4-11) [I-1763], the figure is 52 nM; as for Ac-[αAllylPro]D[tBuAla][B5(5)]D[TfeGA][Lys(iPr)]AFL[PyrS2″][3Thi][Bta]F-NH2 (staple 1-4, 4-11) [I-1761], 39 nM; as for Ac-[αAllylPro]D[tBuAla][B5(5)]D[TfeGA][Lys(iPr)]AFT[PyrS2″][3Thi][Bta]L-NH2 (staple 1-4, 4-11) [I-1760], 32 nM.
